Source: US8987192B2, “Potent and selective mediators of cholesterol efflux” (The Regents of the University of California, priority 2006, dated 2015)
Entries after “also recorded” stand apart in the source; their conditions may differ. Where a SMILES comes first, the peptide text is derived from it. Where no end group is shown, it is not given here.

Columns and labels:
[1] = target: ABCA1 (Mus musculus, UniProt P41233); assay: Cholesterol efflux from [3H]cholesterol-labeled ABCA1-expressing J774 mouse macrophages; assay type: cell-based; parameters: to upregulate cellular ABCA1 protein; endogenous in cells; host or cells: J774 mouse macrophages
Protocol: In some embodiments, a polypeptide known to mediate cholesterol efflux (e.g., helix 9/10 of Apo A-I) is used to screen for additional mediators of cholesterol efflux in a cell based assay. For example, cell lines in which cholesterol efflux can be enhanced using a cAMP analog that up-regulates ABCA1 protein expression (e.g., J774 macrophages) can conveniently be used to assess the ability of a polypeptide of the present invention to mediate cholesterol efflux. The cells are incubated with labeled cholesterol (e.g., [^3H]cholesterol) under conditions appropriate for cholesterol uptake by the cells. Thus, cAMP or cAMP analogs (e.g., CPT-cAMP) are incubated with the cells for a suitable time before the initiation of cellular cholesterol efflux, i.e., prior to contacting the cells with a test polypeptide. Measurement of labeled cholesterol appearing in the medium is used to determine the cholesterol efflux mediating activity of the test polypeptide.
J774 mouse macrophages labeled with [^3H]cholesterol were treated (20 h) with 22-hydroxycholesterol (10 μM)/cis-retinoic acid (10 μM) to upregulate cellular ABCA1 protein.
Mouse macrophages were labeled with [^3H]cholesterol and treated with a cAMP analog to induce ABCA1 expression. […] Km values were calculated using the Michaelis-Menton equation and GraphPad Prism4 software.
Inverted sequence peptides synthesized with all L-amino acids and all D-amino acids were tested for cholesterol efflux activity using ABCA1 expressing J774 macrophages.
Two peptide analogs were engineered; the first replacing glutamic acid residues (E) at position 8 and 15 with aspartic acid residues (D), i.e., E8, 15>D polypeptides, and the second, replacing E1, 7, 8, 15, 18, 19 with D, i.e., all D (Asp) polypeptide. Cholesterol efflux activity was determined using J774 macrophages treated with and without a cAMP analog to modulate ABCA1 expression.
The impact of the A12>L substitution was also tested for activity, which also expanded non-polar surface area.
1-palmitoyl-2-oleoyl-phosphatidylcholine (POPC) was used to evaluate the cholesterol efflux properties of a formulated polypeptide of the present invention. […] To test cholesterol efflux activity, J774 mouse macrophages were labeled with [^3H]cholesterol and treated with and without cAMP to modulate ABCA1 expression.

[2] = system: Apolipoprotein E knock-out mice; assay: Atherosclerosis in Apolipoprotein E knock-out mice on Western diet, pooled series (Example 19); assay type: in vivo, mouse; details: 30 mg/kg IP, 21 injections, pooled data of three series
Protocol: The polypeptide of SEQ ID NO:4 and its Y26 analog have been evaluated with respect to ability to inhibit atherosclerosis in Apolipoprotein E knock-out mice. The mice were given Western diet for 18 weeks and then randomized to receive saline, free polypeptide or polypeptide-phospholipid complex. […] The degree of atherosclerosis was then determined in whole aorta and aortic root/sinus. Three experimental series were performed. […] The results are equal to or better than previously have been obtained with IV infusions of 40 mg/kg Apolipoprotein A-I Milano/phospholipids complex into Apo E knock-out mice (Shah et al., Circ., 97:780-5, 1998).
As noted above, data from three experimental series were pooled. Pooling of data is justified as only minor changes in the procedures were made (21 injections at 30 mg/kg over 42 and 21 days, respectively), and the diet regimens and sources of mice and polypeptide, respectively, were the same. In the first experiment S26 was substituted for Y26.

[3] = Pharmacokinetics of iodinated peptide in Sprague-Dawley rats; assay type: in vivo; details: for Half-live: IP, time interval 0-30 hours
Protocol: An iodinated version of polypeptide of SEQ ID NO:4, which was modified to have a Y residue at the C-terminus, was administered intravenously to Sprague-Dawley rats. The kinetics reflected a biphasic elimination, which is typical of peptides. […] This distribution pattern resembles what has been reported for ApoA-I and HDL. […] (See, FIG. 23).
The bioavailability in percent was calculated from the area under the curve IP as divided by area under the curve IV after adjustment for residual activity and the bioavailability was about 40%.

[4] = system: ABCA1; assay: Cholesterol efflux in the absence and presence of ABCA1 (mouse macrophages and HeLa cells transfected with ABCA1 cDNA); assay type: cell-based; details: 8 hours, saturating peptide >30-fold Km; for requirement of ABCA1 for cholesterol efflux activity: mouse macrophages and ABCA1-transfected HeLa
Text: The large excess of polypeptide was provided to determine the extent (if any) of non-specific efflux, in the absence of ABCA1 induction.

[5] = Pharmacokinetic analysis with monophasic decay model; assay type: in vivo
Text: Position 11, i.e., A, in the polypeptide of SEQ ID NO:4 can be substituted with other non-polar (hydrophobic) amino acids as well as other polar non-charged amino acids.

[6] = target: ABCA1 of J774 mouse macrophages (mouse, UniProt P41233 1-2261); assay: cell-based or functional assay
ABCA1 of J774 mouse macrophages, sequence (P41233 whole entry): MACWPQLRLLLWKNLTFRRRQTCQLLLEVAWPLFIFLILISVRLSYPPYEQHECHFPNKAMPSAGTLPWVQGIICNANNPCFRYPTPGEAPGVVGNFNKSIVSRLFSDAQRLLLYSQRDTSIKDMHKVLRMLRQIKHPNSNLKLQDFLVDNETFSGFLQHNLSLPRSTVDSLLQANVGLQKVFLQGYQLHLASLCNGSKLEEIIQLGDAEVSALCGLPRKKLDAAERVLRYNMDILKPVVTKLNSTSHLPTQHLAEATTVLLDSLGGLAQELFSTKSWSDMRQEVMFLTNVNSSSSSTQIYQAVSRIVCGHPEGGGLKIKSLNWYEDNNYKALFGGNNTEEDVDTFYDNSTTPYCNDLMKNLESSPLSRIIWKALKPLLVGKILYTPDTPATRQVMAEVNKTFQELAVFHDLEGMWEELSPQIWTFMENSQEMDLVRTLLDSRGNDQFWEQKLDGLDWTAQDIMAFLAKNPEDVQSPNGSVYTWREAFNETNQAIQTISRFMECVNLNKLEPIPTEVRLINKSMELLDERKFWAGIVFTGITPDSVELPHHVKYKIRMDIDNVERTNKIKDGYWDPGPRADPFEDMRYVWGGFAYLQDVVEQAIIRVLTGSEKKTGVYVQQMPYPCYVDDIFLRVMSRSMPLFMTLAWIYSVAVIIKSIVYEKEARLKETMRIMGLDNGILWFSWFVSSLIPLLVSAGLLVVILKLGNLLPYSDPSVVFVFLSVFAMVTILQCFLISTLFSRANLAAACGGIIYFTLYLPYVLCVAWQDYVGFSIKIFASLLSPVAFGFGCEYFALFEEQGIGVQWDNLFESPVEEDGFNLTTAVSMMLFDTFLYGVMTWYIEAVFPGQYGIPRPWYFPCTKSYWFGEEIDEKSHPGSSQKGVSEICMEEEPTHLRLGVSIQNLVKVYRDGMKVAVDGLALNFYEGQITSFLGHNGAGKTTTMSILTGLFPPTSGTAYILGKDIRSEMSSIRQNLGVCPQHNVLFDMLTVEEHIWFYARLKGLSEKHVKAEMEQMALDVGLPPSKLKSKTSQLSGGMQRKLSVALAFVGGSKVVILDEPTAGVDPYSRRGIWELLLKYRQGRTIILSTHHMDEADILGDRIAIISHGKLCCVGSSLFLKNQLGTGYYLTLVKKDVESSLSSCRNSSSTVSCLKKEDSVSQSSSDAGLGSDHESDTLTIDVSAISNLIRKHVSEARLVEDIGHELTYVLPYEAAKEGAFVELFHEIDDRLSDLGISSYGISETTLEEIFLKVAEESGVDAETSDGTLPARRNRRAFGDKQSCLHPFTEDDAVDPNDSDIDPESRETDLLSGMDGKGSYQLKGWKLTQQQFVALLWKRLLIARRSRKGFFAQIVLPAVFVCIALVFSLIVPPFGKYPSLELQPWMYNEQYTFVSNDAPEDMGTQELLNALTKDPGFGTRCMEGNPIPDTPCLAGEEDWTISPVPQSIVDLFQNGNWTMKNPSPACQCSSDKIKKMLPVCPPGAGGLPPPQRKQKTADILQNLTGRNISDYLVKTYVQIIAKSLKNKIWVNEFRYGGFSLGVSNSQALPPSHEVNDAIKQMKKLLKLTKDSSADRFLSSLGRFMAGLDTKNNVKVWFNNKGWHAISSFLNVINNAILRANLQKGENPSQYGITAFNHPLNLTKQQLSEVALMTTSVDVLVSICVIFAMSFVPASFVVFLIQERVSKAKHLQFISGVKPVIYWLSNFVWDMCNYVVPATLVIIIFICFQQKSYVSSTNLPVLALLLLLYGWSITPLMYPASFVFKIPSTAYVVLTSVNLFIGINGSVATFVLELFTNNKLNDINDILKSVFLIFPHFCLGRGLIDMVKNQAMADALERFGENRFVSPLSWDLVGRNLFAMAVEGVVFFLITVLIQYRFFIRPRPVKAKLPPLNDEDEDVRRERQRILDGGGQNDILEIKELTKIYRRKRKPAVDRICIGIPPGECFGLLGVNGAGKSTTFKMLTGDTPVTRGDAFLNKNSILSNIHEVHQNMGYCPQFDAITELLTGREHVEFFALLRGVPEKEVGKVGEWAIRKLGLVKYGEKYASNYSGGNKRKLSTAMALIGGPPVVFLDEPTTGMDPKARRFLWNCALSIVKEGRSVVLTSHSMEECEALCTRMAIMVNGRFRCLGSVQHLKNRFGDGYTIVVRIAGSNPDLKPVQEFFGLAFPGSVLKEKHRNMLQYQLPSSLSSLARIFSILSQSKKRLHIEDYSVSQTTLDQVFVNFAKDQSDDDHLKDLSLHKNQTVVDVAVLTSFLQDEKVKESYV

ABCA1 (Mus musculus, UniProt P41233), sequence (P41233 whole entry): as above

SEQ ID NO: 4/Y26: SEQ ID NO:4 with serine 26 replaced by tyrosine; iodinated version used for pharmacokinetics (EVRSKLEEWFAAFREFAEEFLARLKY; also: iodinated version used for pharmacokinetics)
ABCA1-dependent cholesterol efflux ([1]; macrophages with vs without cAMP, listed as S26>Y): stimulated ABCA1 cholesterol efflux like the parent 26-mer polypeptide; also recorded: retained ABCA1-dependent cholesterol efflux activity
antiatherosclerotic effect (whole aorta and aortic root/sinus) [2]: significant antiatherosclerotic effects
Half-live ([3]; listed as SEQ ID NO: 4/Y26 peptide): 11.2 h
Half-live ([3]; modified to include a tyrosine at the C-terminus): about 11 hours
Half-live ([3]; which was modified to have a Y residue at the C-terminus): about 11.2 hours
distribution volume relative to plasma volume ([3]; IV): approximately twice as large as the plasma volume
Correlation ([3]; IV, 0-2.5 hours): −0.95
Half-live, first phase ([3]; IV, 0-2.5 hours): 4.5 h
Clearance ([3]; IV, 2.5-24 hours): 1.2 mL/h/kg
Half-live, terminal (second phase) ([3]; IV, 2.5-24 hours): 33.7 h
Volume of distribution ([3]; IV, 2.5-24 hours): 0.0557 L/kg
Half-live, terminal (second phase) ([3]; IV, 2.5-24 hours, modified to include a tyrosine at the C-terminus): about 34 hours
Half-live, terminal (second phase) ([3]; IV, 2.5-24 hours, which was modified to have a Y residue at the C-terminus): approximately 34 hours

Apo A-I: full-length Apolipoprotein AI, polypeptide comprising 243 amino acids
requirement of ABCA1 for cholesterol efflux activity [4]: required ABCA1 for activity
cholesterol efflux at low mass concentrations ([1]; increasing concentrations based on mass): largely ineffective

CC(C)C[C@H](NC(=O)[C@H](Cc1ccccc1)NC(=O)[C@H](CCC(=O)O)NC(=O)[C@H](CCC(=O)O)NC(=O)[C@H](C)NC(=O)[C@H](Cc1ccccc1)NC(=O)[C@H](CCC(=O)O)NC(=O)[C@H](CCCNC(=N)N)NC(=O)[C@H](Cc1ccccc1)NC(=O)[C@H](C)NC(=O)[C@H](Cc1ccc(O)cc1)NC(=O)[C@H](Cc1ccccc1)NC(=O)[C@H](Cc1c[nH]c2ccccc12)NC(=O)[C@H](CCC(=O)O)NC(=O)[C@H](CCC(=O)O)NC(=O)[C@H](CC(C)C)NC(=O)[C@H](CCCCN)NC(=O)[C@H](CO)NC(=O)[C@H](CCCNC(=N)N)NC(=O)[C@@H](NC(=O)[C@@H](N)CCC(=O)O)C(C)C)C(=O)N[C@@H](C)C(=O)N[C@@H](CCCNC(=N)N)C(=O)N[C@@H](CC(C)C)C(=O)N[C@@H](CCCCN)C(=O)N[C@@H](CO)C(=O)O [A11>Y11] (H-EVRSKLEEWFYAFREFAEEFLARLKS-OH)
pharmacokinetic properties compared to parent polypeptide [5]: identical pharmacokinetic properties

EVRSKLEEWFAAFREFFEEFLARLKS (S1 amphipathic alpha-helix polypeptide core sequence selectively binds HDL, high-affinity ligand for ATP- binding cassette transporter A1 (ABCA1), ABCA1-lipid cholesterol efflux, ABCA1-stablization, anti-oxidant and anti-inflammatory activity) [SEQ ID NO:5]
non-specific efflux activity in the absence of ABCA1 [4]: minimal
requirement of ABCA1 for cholesterol efflux activity [4]: required ABCA1 for efflux activity
cholesterol efflux efficiency/potency on per molecule (molar) basis versus apolipoproteins ([1]; Km in molar units): activity similar to full-length Apo A-I, Apo E, and the C-terminal (CT) domain of Apo E
cholesterol efflux from macrophages not induced for ABCA1 (non-specific) ([1]; no cAMP): Low efflux

EVRAKLEEWFAAFREFAEEFLARLKA [S4, 26>A analog of the polypeptide of SEQ ID NO:4]
cholesterol efflux: concentration giving maximal efflux [6]: 3 µg/mL

EVRAKLEEWFAAFREFAEEFLARL [24-mer core peptide of SEQ ID NO:4 with the S4>A substitution]
cholesterol efflux: concentration giving maximal efflux [6]: 3 µg/mL
